Measured values published in ChEMBL document CHEMBL2074211, “Modulation of nitrated lipid signaling by multidrug resistance protein 1 (MRP1): glutathione conjugation and MRP1-mediated efflux inhibit nitrolinoleic acid-induced, PPARgamma-dependent transcription activation” (Biochemistry, 2006).

Substrate: CCCCC/C=C\C/C(=C\CCCCCCCC(=O)O[C@@H]1O[C@H](C(=O)O)[C@@H](O)[C@H](O)[C@H]1O)[N+](=O)[O-]
Test: TP_TRANSPORTER: vesicle uptake in MRP1-expressing membrane vesicles
Type: functional, cell membranes, MCF7/MRP1-10

B1: Multidrug resistance-associated protein 1 (Homo sapiens) (protein)
chain: MALRGFCSADGSDPLWDWNVTWNTSNPDFTKCFQNTVLVWVPCFYLWACFPFYFLYLSRHDRGYIQMTPLNKTKTALGFLLWIVCWADLFYSFWERSRGIFLAPVFLVSPTLLGITMLLATFLIQLERRKGVQSSGIMLTFWLVALVCALAILRSKIMTALKEDAQVDLFRDITFYVYFSLLLIQLVLSCFSDRSPLFSETIHDPNPCPESSASFLSRITFWWITGLIVRGYRQPLEGSDLWSLNKEDTSEQVVPVLVKNWKKECAKTRKQPVKVVYSSKDPAQPKESSKVDANEEVEALIVKSPQKEWNPSLFKVLYKTFGPYFLMSFFFKAIHDLMMFSGPQILKLLIKFVNDTKAPDWQGYFYTVLLFVTACLQTLVLHQYFHICFVSGMRIKTAVIGAVYRKALVITNSARKSSTVGEIVNLMSVDAQRFMDLATYINMIWSAPLQVILALYLLWLNLGPSVLAGVAVMVLMVPVNAVMAMKTKTYQVAHMKSKDNRIKLMNEILNGIKVLKLYAWELAFKDKVLAIRQEELKVLKKSAYLSAVGTFTWVCTPFLVALCTFAVYVTIDENNILDAQTAFVSLALFNILRFPLNILPMVISSIVQASVSLKRLRIFLSHEELEPDSIERRPVKDGGGTNSITVRNATFTWARSDPPTLNGITFSIPEGALVAVVGQVGCGKSSLLSALLAEMDKVEGHVAIKGSVAYVPQQAWIQNDSLRENILFGCQLEEPYYRSVIQACALLPDLEILPSGDRTEIGEKGVNLSGGQKQRVSLARAVYSNADIYLFDDPLSAVDAHVGKHIFENVIGPKGMLKNKTRILVTHSMSYLPQVDVIIVMSGGKISEMGSYQELLARDGAFAEFLRTYASTEQEQDAEENGVTGVSGPGKEAKQMENGMLVTDSAGKQLQRQLSSSSSYSGDISRHHNSTAELQKAEAKKEETWKLMEADKAQTGQVKLSVYWDYMKAIGLFISFLSIFLFMCNHVSALASNYWLSLWTDDPIVNGTQEHTKVRLSVYGALGISQGIAVFGYSMAVSIGGILASRCLHVDLLHSILRSPMSFFERTPSGNLVNRFSKELDTVDSMIPEVIKMFMGSLFNVIGACIVILLATPIAAIIIPPLGLIYFFVQRFYVASSRQLKRLESVSRSPVYSHFNETLLGVSVIRAFEEQERFIHQSDLKVDENQKAYYPSIVANRWLAVRLECVGNCIVLFAALFAVISRHSLSAGLVGLSVSYSLQVTTYLNWLVRMSSEMETNIVAVERLKEYSETEKEAPWQIQETAPPSSWPQVGRVEFRNYCLRYREDLDFVLRHINVTINGGEKVGIVGRTGAGKSSLTLGLFRINESAEGEIIIDGINIAKIGLHDLRFKITIIPQDPVLFSGSLRMNLDPFSQYSDEEVWTSLELAHLKDFVSALPDKLDHECAEGGENLSVGQRQLVCLARALLRKTKILVLDEATAAVDLETDDLIQSTIRTQFEDCTVLTIAHRLNTIMDYTRVIVLDKGEIQEYGAPSDLLQQRGLFYSMAKDAGLV
**Q.** With B1 as the protein, how does the Km read?
**A.** 0.75 µM
